Reference: the RNAGym collection of RNA variant scans (doi:10.7554/elife.90254)

B1: OR4K15 (parent)
chain: GUUAACGGUCAUAGGCCAUGGAAACUAGGAGCACCAUUUCGCUGCCAGUGAAGAAAUGAACAAAGAAAAUCUGGGCCAGGCAGGCAUCAAAAGAAAUAGUCUUGCGCUCAACCAGAAAGUCUGUAAUCAUUUUAAGGGUA

Variants of: B1
Test: self-cleavage, relative activity (ratio to wild type); higher = more cleavage; in vitro, sequencing; the parent is a self-cleaving ribozyme

Variant | self-cleavage
A54U A117G | 1.63
A55G C113U | 0.03
A54G U87A | 1.79
A54G U87C | 0.9
U57A A129G | 0.9
A55U A68G | 1.44
A55G A78G | 0.23
A55G A78U | 0.18
A55G G106A | 0.01
A55G A86U | 1.26
A55G A86C | 1.66
U57A A95G | 2.11
A55G A95G | 1.92
A54U U72C | 0.09
A55G G84A | 2.46
A55G A96G | 0.83
A55U A91G | 1.73
U57C A135U | 1.02
A56G U72A | 0.26
A56G U72C | 0.28
A56U A91G | 2.02

Variant | self-cleavage
A54U U120C | 0.32
A55U A56G | 1.38
A55U A56U | 0.55
A56G A98G | 0.57
A56G A98U | 2.25
A54G U57C | 0.65
A54G U57G | 0.2
A55G U87A | 1.33
A56G C109A | 0.34
A55U C109U | 0.31
U57C A95U | 1.28
U57C A95G | 1.76
A55U U130C | 1.13
A55C U124C | 0.95
A54U A59G | 1.75
A54U A129G | 0.88
A54U A114G | 0.14
A54G U132C | 1.28
A55G G58A | 1.63
A54U U133A | 1.49
A54U U133C | 2.23

Variant | self-cleavage
A54G U124A | 0.9
A55U A59G | 0.75
U57C U127A | 1.19
U57C U127C | 0.66
A55U A90G | 1.36
A55G U102C | 1.75
U57C A78G | 0.23
U57C A78U | 0.26
U57C A114G | 0.12
U57C A117G | 0.84
A56G A110U | 1.05
A54U A82G | 0.64
A54U A82C | 0.13
A56G A117U | 1.27
A56G G83A | 1.67
A56U A62U | 1.15
A56G A140G | 1.78
U57C A69G | 0.75
U57C A69U | 1.63
U57C A96G | 1.17
A55G C76U | 0.15

Variant | self-cleavage
A55G A126C | 0.18
A56G A116U | 0.56
A55G A129G | 0.99
A55G A129C | 0.72
A55G A114U | 0.02
A55G A114C | 0.05
A55U A116G | 0.88
A55G C107A | 0.02
A55G C107U | 0.05
A54U A94G | 1.64
U57C U139C | 1.94
A54U A126G | 1.6
U57G U120C | 1.11
A56U A96G | 1.62
A54G U100C | 2.16
U57C A67G | 0.83
A55G U72G | 0.25
A54U A86G | 0.36
A56U U57C | 1.47
U57A U103C | 0.22
